Assay results from publication PMC2753473.
Where two headings read alike, the source gives them in different places.

How the values were obtained:
[1] = target: photoactivated rhodopsin (Rho*, Meta II) (bovine) (UniProt P02699); assay: SEC
[2] = target: photoactivated rhodopsin (Rho*, Meta II) (bovine) (UniProt P02699); assay: SEC; remark: listed apart in the source

Chain of photoactivated rhodopsin (Rho*, Meta II) (bovine) (P02699 whole entry): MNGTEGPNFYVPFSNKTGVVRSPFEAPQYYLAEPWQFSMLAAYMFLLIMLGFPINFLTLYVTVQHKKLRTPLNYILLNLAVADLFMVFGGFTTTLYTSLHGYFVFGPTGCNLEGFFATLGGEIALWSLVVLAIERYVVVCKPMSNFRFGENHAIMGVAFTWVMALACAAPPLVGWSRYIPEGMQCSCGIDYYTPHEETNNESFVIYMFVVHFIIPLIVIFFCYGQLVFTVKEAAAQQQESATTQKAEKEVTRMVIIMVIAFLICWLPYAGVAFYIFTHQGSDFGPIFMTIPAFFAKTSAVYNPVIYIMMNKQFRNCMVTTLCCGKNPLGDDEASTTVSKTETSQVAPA

stoichiometry N (Rho*:Gt molar ratio) [1]: 1
stoichiometry N (Rho*:Gt molar ratio) [2]: 1
Substance: transducin (Gt), rod cell-specific heterotrimeric G protein (from UniProt P04695 1-350; P62871 1-340; P02698 1-74) (complex)
